Test results from patent US8524454 (RESEARCH FOUNDATION OF STATE UNIVERSITY OF NEW YORK, dated 2013).

T1: transcobalamin receptor (TCblR) purified from human placenta (human, UniProt Q9NPF0 32-282)
T1 construct: also called TCR; purified TCblR
T1 sequence: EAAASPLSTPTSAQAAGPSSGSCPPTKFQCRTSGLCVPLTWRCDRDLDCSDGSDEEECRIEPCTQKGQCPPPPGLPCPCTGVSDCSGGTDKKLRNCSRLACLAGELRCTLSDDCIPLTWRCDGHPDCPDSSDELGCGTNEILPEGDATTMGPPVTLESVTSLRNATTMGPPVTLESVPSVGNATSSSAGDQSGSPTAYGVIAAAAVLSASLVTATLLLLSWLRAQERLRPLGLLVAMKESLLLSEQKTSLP

T2: recombinant extracellular fragment of TCblR produced in HEK 293 cells (human, UniProt Q9NPF0 32-247)
T2 construct: Highly glycosylated; also called EXC fragment of TCblR; recombinant TCblR extracellular domain
T2 sequence: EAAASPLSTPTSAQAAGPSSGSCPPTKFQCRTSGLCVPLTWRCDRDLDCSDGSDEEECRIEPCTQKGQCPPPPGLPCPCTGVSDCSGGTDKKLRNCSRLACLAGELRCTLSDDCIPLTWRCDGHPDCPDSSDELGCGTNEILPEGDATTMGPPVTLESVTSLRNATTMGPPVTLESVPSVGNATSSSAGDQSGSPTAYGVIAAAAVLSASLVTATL

B1: recombinant extracellular (EXC) domain of TCblR produced in NSO myeloma cells, cleaved from the Fc fusion protein (receptor)
chain: SPLSTPTSAQAAGPSSGSCPPTKFQCRTSGLCVPLTWRCDRDLDCSDGSDEEECRIEPCTQKGQCPPPPGLPCPCTGVSDCSGGTDKKLRNCSRLACLAGELRCTLSDDCIPLTWRCDGHPDCPDSSDELGCGTNEILPEGDATTMGPPVTLESVTSLRNATTMGPPVTLESVPSVGNATSSSAGDQSGSPTAY
notes: Fully glycosylated; also called EXC fragment; EXC-TCblR; not shown: some amino acids of the original Fc fusion protein remained in the cleaved fragment; they are not specified
B2: holo-transcobalamin (recombinant human TC saturated with cobalamin) (ligand, UniProt P20062 19-427, looked up)
chain: EMCEIPEMDSHLVEKLGQHLLPWMDRLSLEHLNPSIYVGLRLSSLQAGTKEDLYLHSLKLGYQQCLLGSAFSEDDGDCQGKPSMGQLALYLLALRANCEFVRGHKGDRLVSQLKWFLEDEKRAIGHDHKGHPHTSYYQYGLGILALCLHQKRVHDSVVDKLLYAVEPFHQGHHSVDTAAMAGLAFTCLKRSNFNPGRRQRITMAIRTVREEILKAQTPEGHFGNVYSTPLALQFLMTSPMRGAELGTACLKARVALLASLQDGAFQNALMISQLLPVLNHKTYIDLIFPDCLAPRVMLEPAAETIPQTQEIISVTLQVLSLLPPYRQSISVLAGSTVEDVLKKAHELGGFTYETQASLSGPYLTSVMGKAAGEREFWQLLRDPNTPLLQGIADYRPKDGETIELRLVSW
notes: also called TC-Cbl; holo TC

Tests used:
[1] = molecular target: B2; assay: binding studies with the recombinant extracellular domain
[2] = molecular target: T1, transcobalamin receptor (TCblR) …; assay: radiolabeled Cbl-TC binding to purified TCblR competed by unlabeled holo-TC or apo-TC (FIG. 12)
[3] = molecular target: T2, recombinant extracellular fragment of …; assay: not described; extracellular fragment expressed in HEK 293 cells

binding result [1] | fold difference in affinity (holo TC against apo TC) [2] [fold] | fold higher affinity (holo-TC against the apo protein) [3] [fold] | Binder
binds |  |  | B1
 | 28 | 28 | B2
